The values below come from the Human Domainome abundance scans (Beltran et al. 2025).

± gives the uncertainty stated by the source.

B1: E3 ubiquitin-protein ligase TRIM36, residues 208 to 252; numbered along this chain, Q9NQ86 (parent)
chain: KILMCPEHETERINMYCELCRRPVCHLCKLGGNHANHRVTTMSSA

Variants of B1 are the subject of this series. Kind of series: abundance fitness (aPCA) (normalised: wild type 0, dead -1); higher = more abundant; growth selection in yeast, the domain comes from the species named. The note with it: Homo sapiens.
Regarding KILMCPEHETERINMYCELCRRPVCHRCKLGGNHANHRVTTMSSA [L27R], the abundance fitness is 0.015 ± 0.044. Then KILMCPEHETERINMYCELCRRPVCHQCKLGGNHANHRVTTMSSA [L27Q], with 0.019 ± 0.061; and KILMCPEHETERINMYCELCRRPVCHWCKLGGNHANHRVTTMSSA [L27W], with -0.223 ± 0.052. To KILMCPEHETERINMYCELCRRPVCHYCKLGGNHANHRVTTMSSA [L27Y] belongs -0.222 ± 0.16. For KILMCPEHETERINMYCELCRRPVCHLYKLGGNHANHRVTTMSSA [C28Y], the abundance fitness was -0.904 ± 0.27. Turning to KILMCPEHETERINMYCELCRRPVCHLAKLGGNHANHRVTTMSSA [C28A], the abundance fitness was -0.672 ± 0.079. Consider KILMCPEHETERINMYCELCRRPVCHLQKLGGNHANHRVTTMSSA [C28Q], for which the abundance fitness is -0.399 ± 0.068. Then KILMCPEHETERINMYCELCRRPVCHLHKLGGNHANHRVTTMSSA [C28H], with -0.763 ± 0.16; and KILMCPEHETERINMYCELCRRPVCHLNKLGGNHANHRVTTMSSA [C28N], with -0.546 ± 0.41. To KILMCPEHETERINMYCELCRRPVCHLLKLGGNHANHRVTTMSSA [C28L] belongs -0.826 ± 0.06.

On to KILMCPEHETERINMYCELCRRPVCHLDKLGGNHANHRVTTMSSA [C28D], for which the abundance fitness turned out to be 0.302 ± 0.27. For the variant KILMCPEHETERINMYCELCRRPVCHLPKLGGNHANHRVTTMSSA [C28P], the abundance fitness is -0.579 ± 0.088.

As to KILMCPEHETERINMYCELCRRPVCHLKKLGGNHANHRVTTMSSA [C28K], the abundance fitness was -0.592 ± 0.13. Then KILMCPEHETERINMYCELCRRPVCHLMKLGGNHANHRVTTMSSA [C28M], with -0.723 ± 0.13; and KILMCPEHETERINMYCELCRRPVCHLIKLGGNHANHRVTTMSSA [C28I], with -0.613 ± 0.09; and KILMCPEHETERINMYCELCRRPVCHLRKLGGNHANHRVTTMSSA [C28R], with -0.637 ± 0.052.

As for KILMCPEHETERINMYCELCRRPVCHLFKLGGNHANHRVTTMSSA [C28F], the abundance fitness was -1.14 ± 0.23. With KILMCPEHETERINMYCELCRRPVCHLTKLGGNHANHRVTTMSSA [C28T], the abundance fitness is -0.777 ± 0.13. To KILMCPEHETERINMYCELCRRPVCHLGKLGGNHANHRVTTMSSA [C28G] belongs -0.608 ± 0.05; to KILMCPEHETERINMYCELCRRPVCHLWKLGGNHANHRVTTMSSA [C28W], -0.91 ± 0.072; to KILMCPEHETERINMYCELCRRPVCHLEKLGGNHANHRVTTMSSA [C28E], -0.275 ± 0.057. Then KILMCPEHETERINMYCELCRRPVCHLVKLGGNHANHRVTTMSSA [C28V], with -0.525 ± 0.062. In the case of KILMCPEHETERINMYCELCRRPVCHLSKLGGNHANHRVTTMSSA [C28S], the abundance fitness is -0.445 ± 0.059. Then KILMCPEHETERINMYCELCRRPVCHLCKLGGSHANHRVTTMSSA [N33S], with 0.036 ± 0.048. To KILMCPEHETERINMYCELCRRPVCHLCKLGGKHANHRVTTMSSA [N33K] belongs 0.016 ± 0.061. To KILMCPEHETERINMYCELCRRPVCHLCKLGGEHANHRVTTMSSA [N33E] belongs -0.003 ± 0.072.

For KILMCPEHETERINMYCELCRRPVCHLCKLGGIHANHRVTTMSSA [N33I], the abundance fitness is -0.064 ± 0.072.

As to KILMCPEHETERINMYCELCRRPVCHLCKLGGGHANHRVTTMSSA [N33G], the abundance fitness was 0.028 ± 0.046. Turning to KILMCPEHETERINMYCELCRRPVCHLCKLGGTHANHRVTTMSSA [N33T], the abundance fitness worked out at 0.044 ± 0.052. Then KILMCPEHETERINMYCELCRRPVCHLCKLGGDHANHRVTTMSSA [N33D], with 0.007 ± 0.062. Then KILMCPEHETERINMYCELCRRPVCHLCKLGGQHANHRVTTMSSA [N33Q], with 0.073 ± 0.06. Then KILMCPEHETERINMYCELCRRPVCHLCKLGGAHANHRVTTMSSA [N33A], with 0.071 ± 0.056.

With KILMCPEHETERINMYCELCRRPVCHLCKLGGFHANHRVTTMSSA [N33F], the abundance fitness is -0.125 ± 0.092.

With KILMCPEHETERINMYCELCRRPVCHLCKLGGRHANHRVTTMSSA [N33R], the abundance fitness is -0.066 ± 0.052.

As for KILMCPEHETERINMYCELCRRPVCHLCKLGGLHANHRVTTMSSA [N33L], the abundance fitness is -0.028 ± 0.048. Turning to KILMCPEHETERINMYCELCRRPVCHLCKLGGPHANHRVTTMSSA [N33P], the abundance fitness was found to be 0.092 ± 0.057. To KILMCPEHETERINMYCELCRRPVCHLCKLGGMHANHRVTTMSSA [N33M] belongs -0.015 ± 0.064.

As to KILMCPEHETERINMYCELCRRPVCHLCKLGGHHANHRVTTMSSA [N33H], the abundance fitness was -0.046 ± 0.071. Consider KILMCPEHETERINMYCELCRRPVCHLCMLGGNHANHRVTTMSSA [K29M], for which the abundance fitness is -0.057 ± 0.057. To KILMCPEHETERINMYCELCRRPVCHLCFLGGNHANHRVTTMSSA [K29F] belongs 0.001 ± 0.096; to KILMCPEHETERINMYCELCRRPVCHLCTLGGNHANHRVTTMSSA [K29T], -0.009 ± 0.063; to KILMCPEHETERINMYCELCRRPVCHLCILGGNHANHRVTTMSSA [K29I], -0.13 ± 0.064. Then KILMCPEHETERINMYCELCRRPVCHLCVLGGNHANHRVTTMSSA [K29V], with 0.004 ± 0.054; and KILMCPEHETERINMYCELCRRPVCHLCALGGNHANHRVTTMSSA [K29A], with 0.012 ± 0.047; and KILMCPEHETERINMYCELCRRPVCHLCGLGGNHANHRVTTMSSA [K29G], with -0.009 ± 0.048.

Regarding KILMCPEHETERINMYCELCRRPVCHLCSLGGNHANHRVTTMSSA [K29S], the abundance fitness turned out to be 0.003 ± 0.055. To KILMCPEHETERINMYCELCRRPVCHLCDLGGNHANHRVTTMSSA [K29D] belongs 0.126 ± 0.12. KILMCPEHETERINMYCELCRRPVCHLCRLGGNHANHRVTTMSSA [K29R]: the abundance fitness was -0.025 ± 0.051. Then KILMCPEHETERINMYCELCRRPVCHLCCLGGNHANHRVTTMSSA [K29C], with -0.07 ± 0.074; and KILMCPEHETERINMYCELCRRPVCHLCQLGGNHANHRVTTMSSA [K29Q], with 0.019 ± 0.074; and KILMCPEHETERINMYCELCRRPVCHLCLLGGNHANHRVTTMSSA [K29L], with 0.039 ± 0.055.

As to KILMCPEHETERINMYCELCRRPVCHLCPLGGNHANHRVTTMSSA [K29P], the abundance fitness is -0.043 ± 0.065. Then KILMCPEHETERINMYCELCRRPVCHLCHLGGNHANHRVTTMSSA [K29H], with -0.066 ± 0.075. Then KILMCPEHETERINMYCELCRRPVCHLCWLGGNHANHRVTTMSSA [K29W], with -0.12 ± 0.07; and KILMCPEHETERINMYCELCRRPVCHLCELGGNHANHRVTTMSSA [K29E], with 0.048 ± 0.054; and KILMCPEHETERINMYCELCRRPVCHLCYLGGNHANHRVTTMSSA [K29Y], with -0.012 ± 0.063. To KILMCPEHETERINMYCELCRRPVCHLCNLGGNHANHRVTTMSSA [K29N] belongs 0.072 ± 0.084.
